A short description of the data set: yeast display, Sf9 membrane polyspecificity reagent, FACS + sequencing; frameworks hold sequencing errors. Put shortly: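 In a synthetic yeast display library (Saccharomyces cerevisiae BJ5465), nanobody expression was induced with galactose for 36–48 hours. FACS gates were set low and high (top ~1%) using anti-HA fluorescence for expression and streptavidin fluorescence for binding of the Sf9 membrane reagent. Each polyreactivity label is drawn from the gate of origin.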
Turning to “QVQLVESGGGLVQAGGSLRLSCAASGGIFPVYAMGWSRQAPGKERELVATITSDGDTNYADSVKGRFTISRDNAKNTVYLQMNSLKPEDTAVYYCNKDLDYIIVQPHSPELEYWGQGTQVTVSS”, the “polyreactivity (PSR sort gate)” value is listed as “low polyreactivity”.

Consider “QVQLVESGGGLVQAGGSLRLSCAASGGIFPWNAMGWYRQAPGKERELVAAIDNTDGTHYADSVKGRFTISRDNAKNTVYLQMNSQKPEDTAVYYCAAEYYYFVYPFYNWGYEYWGQGTQVTVSS”, for which the “polyreactivity (PSR sort gate)” value was “high polyreactivity”.

For the sequence “QVQLVESGGGLVQAGGSLRLSCAASGGIFQLNAMGWYSQAPGKERELVAAISGSGGSTYYADSVKGRFTISRDNAKNTVYLQMNSLKPEDTAVYYCAVRLTITDYDYWGQGTQVTVSS”, the “polyreactivity (PSR sort gate)” value is given as “low polyreactivity”.

As to “QVQLVESGGGLVQAGGSLRLSCAASGGIFRRYPMGWYRQATGKERELVAAISKRGGSTYYADSVKGRFTISRDNAKNTVYLQMNSLKPEDTAFYYCAKQRGGQPRSSTYYYWGQGTQVTVSS”, the “polyreactivity (PSR sort gate)” value is on record as “high polyreactivity”.

On to “QVQLVESGGGLVQAGGSLRLSCAASGGIFRVYAMGWYRQAPGKERELVAAISRSGSSTYYADSVKGRFTISRDNAKNTVYLQMNSLKPEDTAVYYCNAYSQYWLGNNYWGQGSQVTVSS”, for which the “polyreactivity (PSR sort gate)” value is on record as “high polyreactivity”.

On to “QVQLVESGGGLVQAGGSLRLSCAASGGIFRYYAMGLYRQAPGKERELVASIRRSGGRTYYADSVKGRFTISRDNAKYTVYFQMNSLKPEDTAVYYCNADRLIVTMNSWGQGTQVTVSS”, for which the “polyreactivity (PSR sort gate)” value was “low polyreactivity”.

Consider “QVQLVESGGGLVQAGGSLRLSCAASGGIFRYYAMGWYRQAPGKERELVAAISRSTRTYYADSVKGRFTISRDNAKITVYLQMNSLKPEDTEVYYCAAKYVSRRYSRYNYWGQGTQVSVSS”, for which the “polyreactivity (PSR sort gate)” value is “high polyreactivity”.

For “QVQLVESGGGLVQAGGSLRLSCAASGGIFSAYDMGWYRQAPGTERELVAAINSGGSTNYADSVKGRFTISRDNAKNTVYLQMNSLKPEDTAVYYCAAAKVSWFGLKYYYWGQGTQVTVSS”, the “polyreactivity (PSR sort gate)” value is given as “high polyreactivity”.

For “QVQLVESGGGLVQAGGSLRLSCAASGGIFSAYSMGWYRKAPGKERELVASITTDGGITYYADSVKGRFTISRDNAKNTVYLQMNSLKPEDTAVYYCAVLQYYYPYYYWGQGTQVTVSS”, the “polyreactivity (PSR sort gate)” value is “low polyreactivity”.

Turning to “QVQLVESGGGLVQAGGSLRLSCAASGGIFSGNDMGWYRQAPGKERELVATITSDGSTNYSDSVKGRFTYSRDNAKNTVYLQMNSLKPEDTAVYYCAADGLYWWMYYWGQGTQVTVSS”, the “polyreactivity (PSR sort gate)” value is listed as “low polyreactivity”.

For “QVQLVESGGGLVQAGGSLRLSCAASGGIFSRYAMGWYRQAPGKEREFVAAISFSGASTYYADSVKGRFTISRDNAKYTVYLQMNSLKPEDTAVYYCAAYWDAEGRRYTRLDYWGQGTQVTVSS”, the “polyreactivity (PSR sort gate)” value is “low polyreactivity”.

For “QVQLVESGGGLVQAGGSLRLSCAASGGIFSTYTMGWSRQAPGKERELVAAITTGNSTYYADSVKGRFTISRDNAKNTVYLQMNSLKPEDTAVYYCAAFAASRDYYRRLIHDGYDYWGQGTQVTVSS”, the “polyreactivity (PSR sort gate)” value is recorded as “low polyreactivity”.

With “QVQLVESGGGLVQAGGSLRLSCAASGGIFSYAMGWSRQAPGKERELVADINSDGSTTYADSVKGRFTISRDNAKNTVYLQMNSLKPEDTAVYYCAVDVSVNWPLLERYEYWGQGTQVTVSS”, the “polyreactivity (PSR sort gate)” value is listed as “low polyreactivity”.

As for “QVQLVESGGGLVQAGGSLRLSCAASGGIFSYAMGWYRQAPGKERELVAAISRSAGITYYADSVKGRFTISRDNAKNTVYLQMNSLKPEDTAVYYCAASYYSYLYYSWGQGTQVTVSS”, the “polyreactivity (PSR sort gate)” value is “high polyreactivity”.

Regarding “QVQLVESGGGLVQAGGSLRLSCAASGGIFSYNDMGWYRQAPGKERELVAAISSGGGGITYYADSVKGRFTISRDNAKNTVYLQMNSLKPEDTAVYYCNVVPDFRAAYSSQYYYWGQGTQVTVSS”, the “polyreactivity (PSR sort gate)” value is listed as “low polyreactivity”.

Turning to “QVQLVESGGGLVQAGGSLRLSCAASGGIFSYYAMGWYRQAHGKERELVAAISGSGGRTYYADSVKGRFTISRDNAKNTVYLQMNSLKPEDTAVYYCAADSLSYSWEYYYWGQGTQVTVSS”, the “polyreactivity (PSR sort gate)” value is “high polyreactivity”.

Turning to “QVQLVESGGGLVQAGGSLRLSCAASGGIFSYYTMGWYRQAPGKERELVARITTGGSTNYADSVKGRFTISRDNAKNTVYLQMNSLKPEDTAVYYCAATGPKYWLTWSSYTRYDYWGQGTQVTVSS”, the “polyreactivity (PSR sort gate)” value was “high polyreactivity”.

In the case of “QVQLVESGGGLVQAGGSLRLSCAASGGIFTINAMGWYRQAPGKERELVAAITYGGTSTNYADSVKGRFTISRDNAKNTVYLQMNSLKPEDTAVYYCAKLPNLPGDYWGQGTQVTVSS”, the “polyreactivity (PSR sort gate)” value is “low polyreactivity”.

In the case of “QVQLVESGGGLVQAGGSLRLSCAASGGIFTIYAMGWYRQAPGKETELVASITGGSGSTYYADSVKGRFTISRDNAKNTVYLQMNSLKPEDTAVYYCARETYRRYGAYDYWGQGTQVTVSS”, the “polyreactivity (PSR sort gate)” value is “low polyreactivity”.

Regarding “QVQLVESGGGLVQAGGSLRLSCAASGGIFTLYVMGWYRQEPGKERELVAAISRTGGSTYYADSVKGRLTISRDNAKNTVYLQMNSLKPEDTAVYYCDAERGVDDSARYGDYDYWGQGTQVTVSS”, the “polyreactivity (PSR sort gate)” value is given as “low polyreactivity”.

Take “QVQLVESGGGLVQAGGSLRLSCAASGGIFTPYAMGWYIQAPGKEREFVAGIRWSGVSTSYADSVKGRFTISRDNAKNTVYFQMNSLKPEDTAVSYCAATTHRWWVTFDYWGQGTQVTVSS”: the “polyreactivity (PSR sort gate)” value is “low polyreactivity”.

In the case of “QVQLVESGGGLVQAGGSLRLSCAASGGIFVFYAMGWYRQAPGKERELVAAITYRGGSTSYADSVKRRFTISRDNAKNTVYLQMNSLKPEDTAVYYCNARRRTWYGFYYWGQGTQVTVSS”, the “polyreactivity (PSR sort gate)” value is on record as “high polyreactivity”.

Turning to “QVQLVESGGGLVQAGGSLRLSCAASGGIFVRYAMGWYRPAPGKERELVAAISSSGDRTYYADSVKGRFTISRDTAKNTVYLQMNSLKPEDTAVYYCNADRGHDKVDYWGQGTQVTVSS”, the “polyreactivity (PSR sort gate)” value is reported as “low polyreactivity”.

For the sequence “QVQLVESGGGLVQAGGSLRLSCAASGGIFVSYAMGWYRQAPGKERELVAAITSGGGTSYADSVKGRFTISRDNAKNTVYLQLTSLKPEDTAVYYCAARFLWSVFGRKGGYWGQGTQVTVSS”, the “polyreactivity (PSR sort gate)” value is listed as “low polyreactivity”.

Consider “QVQLVESGGGLVQAGGSLRLSCAASGGIFWYYAMGWYRQAPGKERELVAGISRGGGTYYADSVKGRFTISRDNAKNTVYLQMNSLKPEDTAVYYCAVDGRYAYAYEYWGQGTQVTVSS”, for which the “polyreactivity (PSR sort gate)” value is on record as “low polyreactivity”.

With “QVQLVESGGGLVQAGGSLRLSCAASGGIFWYYTMGWYRQAPGKERELVATISSGGRTYYADSVKGRFTISRDNAKNTVYLQMNSLKPEDTAVYYCAAVGWYNDYYWGQGTQVTVSS”, the “polyreactivity (PSR sort gate)” value is “high polyreactivity”.

With “QVQLVESGGGLVQAGGSLRLSCAASGGIFYAYDMGWYRQAPGKERELVAAITWTGGTTYYADSVKGRFTISRDNAKNTVYLQMNSLKPEDTAVYYCAADDGTNSTARDKDDYYYWGQGTQVTVSS”, the “polyreactivity (PSR sort gate)” value is “low polyreactivity”.

Regarding “QVQLVESGGGLVQAGGSLRLSCAASGGIFYFNAMGWYRQAPWKERELVAAIDQRGDTTYYADTVKGRFTISRDNAKNTVYLQMNSLKPEDTAVYYCAAEIYFLGDDYWGQGTQFTVSS”, the “polyreactivity (PSR sort gate)” value is reported as “high polyreactivity”.

As for “QVQLVESGGGLVQAGGSLRLSCAASGGIFYLNAMGWYRQAPGKERELVAAISSGVSTYYADSVKGSFTISRDNAKNTVYLKMNSLKPEDTAVYYCNADYNYPAWVGSWWDYDYWGQGTQVTVTS”, the “polyreactivity (PSR sort gate)” value is listed as “low polyreactivity”.

On to “QVQLVESGGGLVQAGGSLRLSCAASGGIFYLYVMGWYRQAPGKERELVAAITSRGGRTYYADSVKGRFTISRDNAKNTVYLQMNSLKPEDTAVYYCNASQSDIFDYDYWGQGTQVTVSS”, for which the “polyreactivity (PSR sort gate)” value is “low polyreactivity”.

In the case of “QVQLVESGGGLVQAGGSLRLSCAASGGIFYRYAMGWYRQAPGKERELVAVISRSGSTYYADSVKGRFTISRDNAKNTVYLQMNSQKPEDTAVYYCNKYGQVPGYFSLDYWGQGTQVTVSS”, the “polyreactivity (PSR sort gate)” value was “high polyreactivity”.

As to “QVQLVESGGGLVQAGGSLRLSCAASGGIFYTYAMGWYRQAPGKERELVAGINWSGSSTYYADSVKGRFTISRDNAKNTVYLQMNSLKPEDTAVYYCAARSYSYSTGDYWGQGTQVTVSS”, the “polyreactivity (PSR sort gate)” value was “low polyreactivity”.

As to “QVQLVESGGGLVQAGGSLRLSCAASGGIFYYYAMGWYRQAPGKERQLVAGISADGGSTYYADSVKGRFTISRDNAKNTVYLQMNSLKPEDTAVYYCAADGQFDDYYSLAFDYDYWGQGTQVTVSS”, the “polyreactivity (PSR sort gate)” value is on record as “high polyreactivity”.

Consider “QVQLVESGGGLVQAGGSLRLSCAASGGIIDWYVKGWYRQAPGTERELVAAISYKGGSTYYADSVKGRFTISRDYAKTTGYFQMNSLKPEETAVYDCAAGVTSPYRYVWYDYWGQGTQVTVSS”, for which the “polyreactivity (PSR sort gate)” value is “low polyreactivity”.

With “QVQLVESGGGLVQAGGSLRLSCAASGGIIGAYVMGWYIQAAGKERELVAAISSGGDTNYADTVKGRFTISRDNAKNTVYIQMNSQKPEDTAVSYCAKDPYWTELYPSGDYWGQGTQVTVSS”, the “polyreactivity (PSR sort gate)” value is on record as “low polyreactivity”.

With “QVQLVESGGGLVQAGGSLRLSCAASGGILRGYAMGWYRQAPGKERELVAAISRGGRTNYADSVKGRFTISRDNAKNTVYLQMNSLKPEDTAVYYCTALSAFQVDNYDYWGQGTQVTVSS”, the “polyreactivity (PSR sort gate)” value is given as “high polyreactivity”.

Turning to “QVQLVESGGGLVQAGGSLRLSCAASGGILSDYAMGWYRQAPGKERELVAAITISGGRTNYADSVKGRITISRDNAKITVYLQMNSLKPEDTAVSYCNKLPWSVRVYKPYDYWGEGTQVTVSS”, the “polyreactivity (PSR sort gate)” value is listed as “low polyreactivity”.

As to “QVQLVESGGGLVQAGGSLRLSCAASGGILVGYDMGWYRQAPGKERELVAAINYSGGSTNYADSVKGRFTISRDNAKNTVYLQMNSLKTEDTALYYCAARSTARYGYWGQGTQVTVSS”, the “polyreactivity (PSR sort gate)” value was “low polyreactivity”.

Consider “QVQLVESGGGLVQAGGSLRLSCAASGGISLRYAMGWYRQAPGKERELVAVIDFSGASTYYADSVKGRFTISRDNAKNTVYLQMNSLKPEDTAVYYCAADSHYQDDFRIQYDYWGQGTQVTVSS”, for which the “polyreactivity (PSR sort gate)” value is reported as “low polyreactivity”.

On to “QVQLVESGGGLVQAGGSLRLSCAASGGIVRSNAMGWYRQAPGKERELVAAINRSVRTYYADSVKGRFTISRDNEKNTVYLQMNSLKPEDTAVYYCAAQQGVISRGNYWGQGTQVTVSA”, for which the “polyreactivity (PSR sort gate)” value is “low polyreactivity”.

For the sequence “QVQLVESGGGLVQAGGSLRLSCAASGGLFSVYAMGWYRQAPGKERELVASITVSGGSTSYADSVKGRFTISRDNAKNTVYLQMYSLKPEDTAVYYCNTDFAQAHTLSWYEDMDYWGQGTQVTVSS”, the “polyreactivity (PSR sort gate)” value is “low polyreactivity”.

(Values after the nanobody polyreactivity screen of Harvey et al. (2022).)
